In patent publication US7268108 (INSTITUT EUROPEAN DE BIOLOGIE CELLULAIRE, dated 2007):
[ ]: non-standard residue; d: D form. The star is where a group is joined. dPhe(4-NO2) = N[C@H](Cc1ccc([N+](=O)[O-])cc1)C(=O)O; 2Nal = N[C@@H](Cc1ccc2ccccc2c1)C(=O)O; Benzenesulfonyl = O=S(=O)(c1ccccc1)*; d2Thi = N[C@H](Cc1cccs1)C(=O)O; PyrProp = pyridinepropionyl; Nle = CCCC[C@H](N)C(=O)O

B1: Compound No. 9 in the Table, Ac-Nle-Ala-His-DThi-Lys-Trp-NH2 (peptide)
peptide: Ac-[Nle]AH[d2Thi]KW-NH2
SMILES: CCCC[C@H](NC(C)=O)C(=O)N[C@@H](C)C(=O)N[C@@H](Cc1c[nH]cn1)C(=O)N[C@H](Cc1cccs1)C(=O)N[C@@H](CCCCN)C(=O)N[C@@H](Cc1c[nH]c2ccccc12)C(N)=O
B2: Compound No. 8 in the Table, BzlSO2-Nle-Ala-His-DThi-Lys-Trp-NH2 (peptide)
peptide: Benzenesulfonyl-[Nle]AH[d2Thi]KW-NH2
SMILES: CCCC[C@H](NS(=O)(=O)c1ccccc1)C(=O)N[C@@H](C)C(=O)N[C@@H](Cc1c[nH]cn1)C(=O)N[C@H](Cc1cccs1)C(=O)N[C@@H](CCCCN)C(=O)N[C@@H](Cc1c[nH]c2ccccc12)C(N)=O
B3: Compound No. 7 in the Table, BzlSO2-Nle-Ala-His-DpNO2Phe-Lys-Trp-NH2 (peptide)
peptide: Benzenesulfonyl-[Nle]AH[dPhe(4-NO2)]KW-NH2
SMILES: CCCC[C@H](NS(=O)(=O)c1ccccc1)C(=O)N[C@@H](C)C(=O)N[C@@H](Cc1c[nH]cn1)C(=O)N[C@H](Cc1ccc([N+](=O)[O-])cc1)C(=O)N[C@@H](CCCCN)C(=O)N[C@@H](Cc1c[nH]c2ccccc12)C(N)=O
B4: Compound No. 12 in the Table, Ac-Nle-Ala-His-L2,Nap-Lys-Trp-NH2 (peptide)
peptide: Ac-[Nle]AH[2Nal]KW-NH2
SMILES: CCCC[C@H](NC(C)=O)C(=O)N[C@@H](C)C(=O)N[C@@H](Cc1c[nH]cn1)C(=O)N[C@@H](Cc1ccc2ccccc2c1)C(=O)N[C@@H](CCCCN)C(=O)N[C@@H](Cc1c[nH]c2ccccc12)C(N)=O

These binders were tested against melanocortin-1 receptor (MC-1r) on murine melanocytes (line S91 Cloudman) (murine, UniProt Q01727 1-315) (assay: cell-based or functional assay).
melanocortin-1 receptor (MC-1r) on murine melanocytes (line S91 Cloudman), sequence (Q01727 whole entry): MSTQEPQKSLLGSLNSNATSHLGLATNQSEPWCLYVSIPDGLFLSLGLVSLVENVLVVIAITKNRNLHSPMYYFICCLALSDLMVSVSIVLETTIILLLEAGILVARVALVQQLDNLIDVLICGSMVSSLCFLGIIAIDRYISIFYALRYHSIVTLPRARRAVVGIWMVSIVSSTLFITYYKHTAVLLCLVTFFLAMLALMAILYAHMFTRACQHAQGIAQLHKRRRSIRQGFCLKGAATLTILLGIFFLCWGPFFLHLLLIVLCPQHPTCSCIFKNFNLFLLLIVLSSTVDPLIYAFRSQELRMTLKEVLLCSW
In the case of B1, the “cAMP production (as % of α-MSH)” value is reported as 75 % of α-MSH. B2 was tested, and the “cAMP production (as % of α-MSH)” value was 65 % of α-MSH. In the case of PyrProp-[Nle]AH[dPhe(4-NO2)]KW-NH2 [Compound No. 10 in the Table, PyrProp-Nle-Ala-His-DpNO2Phe-Lys-Trp-NH2], the “cAMP production (as % of α-MSH)” value is reported as 115 % of α-MSH. In the case of Ac-SYSMEHFRWGKPV-NH2, the “cAMP production (as % of α-MSH)” value is reported as 100 % of α-MSH. For B3, the “cAMP production (as % of α-MSH)” value was 100 % of α-MSH. In the case of B4, the “cAMP production (as % of α-MSH)” value is reported as 50 % of α-MSH.
